Legend:
[1] = target: WNV IS98-ST1 M-I36F/A43G double mutant virions (E protein at the surface, M protein I36F and A43G) (West Nile virus, strain IS98-ST1); assay: indirect non-competitive ELISA, Vero-produced virus captured by polyclonal anti-WNV, HRP-conjugated 4G2
[2] = target: WNV IS98-ST1 M-I36F/A43G double mutant virions (E protein at the surface, M protein I36F and A43G) (West Nile virus, strain IS98-ST1); assay: direct ELISA, coated UV-inactivated virus produced in Vero cells

## Monoclonal antibody (mAb) 4G2 anti-Flavivirus E protein
[1]
  fold decrease in recognition: 1.2 to 2 fold
[2]
  fold decrease in recognition compared to wild-type and M-A43G: 1.2 fold
